From article PMC11187117, “Structure of the endosomal CORVET tethering complex” (Nature Communications, 2024)

Experiments:
Assay in all cases: cryo-EM structure; single-particle cryo-EM of the hexameric CORVET co-expressed in yeast and purified by 3xFLAG on Vps8 and SEC; about 0.8 mg/ml; consensus map 4.6 Å, local refinements to 3.8 Å
Conditions in all cases: both partners purified
[1] = target: T1, Vps3 (CORVET subunit) (yeast, UniProt P23643 1-1011)
T1 construct: UniProt P23643 printed for its AlphaFold model; N-terminal half (with the β-propeller) was removed from the deposited model; source: yeast lysate in the Vps8-ALFA pull-downs
T1 sequence: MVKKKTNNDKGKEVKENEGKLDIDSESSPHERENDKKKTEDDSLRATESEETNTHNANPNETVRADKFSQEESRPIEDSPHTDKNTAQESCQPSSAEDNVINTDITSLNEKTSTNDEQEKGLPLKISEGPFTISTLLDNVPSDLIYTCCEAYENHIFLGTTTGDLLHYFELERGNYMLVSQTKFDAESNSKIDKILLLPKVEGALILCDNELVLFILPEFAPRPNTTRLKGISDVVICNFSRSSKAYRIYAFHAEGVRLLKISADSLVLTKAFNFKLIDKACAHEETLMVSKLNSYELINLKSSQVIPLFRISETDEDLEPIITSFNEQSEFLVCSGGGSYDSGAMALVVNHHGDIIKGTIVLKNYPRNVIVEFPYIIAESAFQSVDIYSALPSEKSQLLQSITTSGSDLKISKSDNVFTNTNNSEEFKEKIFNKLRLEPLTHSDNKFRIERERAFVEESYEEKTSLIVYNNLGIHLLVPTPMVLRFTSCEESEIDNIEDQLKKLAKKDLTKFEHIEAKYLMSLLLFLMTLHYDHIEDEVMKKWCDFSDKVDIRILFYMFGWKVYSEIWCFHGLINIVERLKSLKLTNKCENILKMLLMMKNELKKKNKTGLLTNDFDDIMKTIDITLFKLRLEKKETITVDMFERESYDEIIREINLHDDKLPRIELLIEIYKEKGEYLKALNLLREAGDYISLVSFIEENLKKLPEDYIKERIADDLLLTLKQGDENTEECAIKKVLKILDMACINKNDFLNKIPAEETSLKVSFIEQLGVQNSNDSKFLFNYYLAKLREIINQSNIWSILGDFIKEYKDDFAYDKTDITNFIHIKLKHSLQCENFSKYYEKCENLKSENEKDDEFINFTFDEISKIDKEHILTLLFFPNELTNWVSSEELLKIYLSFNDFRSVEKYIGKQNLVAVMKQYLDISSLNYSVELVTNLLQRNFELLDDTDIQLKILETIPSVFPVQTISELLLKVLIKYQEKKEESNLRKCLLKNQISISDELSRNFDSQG

[2] = target: T2, Vps8 with 3xFLAG tag (CORVET subunit) (yeast, UniProt P39702 1-1274)
T2 construct: UniProt P39702 printed for its AlphaFold model
T2 sequence: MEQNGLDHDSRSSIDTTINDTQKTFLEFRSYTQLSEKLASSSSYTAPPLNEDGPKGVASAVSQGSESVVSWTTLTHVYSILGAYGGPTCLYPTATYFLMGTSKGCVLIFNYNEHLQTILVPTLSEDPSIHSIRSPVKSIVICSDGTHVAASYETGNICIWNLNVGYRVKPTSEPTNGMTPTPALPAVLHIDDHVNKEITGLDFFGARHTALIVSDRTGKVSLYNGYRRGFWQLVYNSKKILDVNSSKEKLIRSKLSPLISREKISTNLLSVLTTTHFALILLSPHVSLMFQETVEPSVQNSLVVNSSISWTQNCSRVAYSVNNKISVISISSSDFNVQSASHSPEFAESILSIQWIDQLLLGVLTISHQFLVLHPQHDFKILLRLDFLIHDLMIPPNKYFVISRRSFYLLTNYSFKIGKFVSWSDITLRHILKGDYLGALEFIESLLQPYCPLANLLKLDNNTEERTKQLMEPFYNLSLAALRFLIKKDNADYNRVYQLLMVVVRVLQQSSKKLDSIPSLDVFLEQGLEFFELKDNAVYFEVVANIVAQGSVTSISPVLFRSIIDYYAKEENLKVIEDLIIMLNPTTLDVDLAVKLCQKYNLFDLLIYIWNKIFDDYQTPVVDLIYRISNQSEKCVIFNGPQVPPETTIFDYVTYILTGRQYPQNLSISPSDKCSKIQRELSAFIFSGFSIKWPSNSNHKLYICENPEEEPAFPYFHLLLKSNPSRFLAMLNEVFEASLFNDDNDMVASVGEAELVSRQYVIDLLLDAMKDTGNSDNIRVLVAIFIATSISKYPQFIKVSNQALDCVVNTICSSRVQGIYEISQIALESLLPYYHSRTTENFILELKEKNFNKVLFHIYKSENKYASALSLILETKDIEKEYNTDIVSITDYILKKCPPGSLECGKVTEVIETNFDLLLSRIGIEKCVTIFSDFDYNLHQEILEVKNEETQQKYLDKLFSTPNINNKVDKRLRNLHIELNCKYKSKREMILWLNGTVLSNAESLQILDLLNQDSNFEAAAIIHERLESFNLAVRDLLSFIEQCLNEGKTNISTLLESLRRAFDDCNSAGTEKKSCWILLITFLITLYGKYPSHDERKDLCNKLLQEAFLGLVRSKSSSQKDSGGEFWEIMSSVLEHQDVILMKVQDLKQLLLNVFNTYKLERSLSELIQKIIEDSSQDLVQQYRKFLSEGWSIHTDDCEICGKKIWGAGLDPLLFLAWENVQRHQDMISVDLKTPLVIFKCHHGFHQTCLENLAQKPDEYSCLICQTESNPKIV

[3] = target: T3, Vps11 (CORVET and HOPS core subunit) (yeast, UniProt P12868 1-1029)
T3 construct: Vps11, yeast, core subunit shared by CORVET and HOPS
T3 sequence: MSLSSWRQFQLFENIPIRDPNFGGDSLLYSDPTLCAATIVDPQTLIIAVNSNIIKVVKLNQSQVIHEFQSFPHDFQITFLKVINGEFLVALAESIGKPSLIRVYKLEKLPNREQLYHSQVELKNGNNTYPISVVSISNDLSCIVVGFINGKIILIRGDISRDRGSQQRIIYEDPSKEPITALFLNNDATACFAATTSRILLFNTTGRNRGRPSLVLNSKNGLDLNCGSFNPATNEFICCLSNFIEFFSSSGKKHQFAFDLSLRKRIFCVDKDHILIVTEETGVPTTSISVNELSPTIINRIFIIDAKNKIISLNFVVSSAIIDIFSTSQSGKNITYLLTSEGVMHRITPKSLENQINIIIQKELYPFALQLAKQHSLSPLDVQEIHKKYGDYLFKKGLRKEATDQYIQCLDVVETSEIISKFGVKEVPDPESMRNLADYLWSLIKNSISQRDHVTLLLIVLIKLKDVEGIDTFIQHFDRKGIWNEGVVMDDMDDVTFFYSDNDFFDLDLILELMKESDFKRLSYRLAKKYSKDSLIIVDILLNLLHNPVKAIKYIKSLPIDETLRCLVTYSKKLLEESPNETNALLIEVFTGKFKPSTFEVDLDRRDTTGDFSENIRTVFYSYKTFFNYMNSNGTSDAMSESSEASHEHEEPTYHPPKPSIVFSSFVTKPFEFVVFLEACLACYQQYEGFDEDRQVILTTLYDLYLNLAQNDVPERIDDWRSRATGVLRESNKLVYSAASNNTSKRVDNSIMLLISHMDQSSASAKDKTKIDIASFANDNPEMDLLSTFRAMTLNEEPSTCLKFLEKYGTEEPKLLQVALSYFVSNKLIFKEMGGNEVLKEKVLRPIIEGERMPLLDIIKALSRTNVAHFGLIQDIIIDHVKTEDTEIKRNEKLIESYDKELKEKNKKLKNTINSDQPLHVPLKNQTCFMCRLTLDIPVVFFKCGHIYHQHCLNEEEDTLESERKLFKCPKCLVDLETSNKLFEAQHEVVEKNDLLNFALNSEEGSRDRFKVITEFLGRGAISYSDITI

Measured: binding result

B1: Vps18 (CORVET and HOPS core subunit) (natural protein, yeast)
chain: MIKTRIEEVQLQFLTGNTELTHLKVSNDQLIVTTQRTIYRINLQDPAIVNHFDCPLSKELETIMNVHVSPMGSVILIRTNFGRYMLLKDGEFTQLNKIKNLDLSSLHWINETTFLMGIKKTPKLYRVELTGKDITTKLWYENKKLSGGIDGIAYWEGSLLLTIKDNILYWRDVTNMKFPLVLPDESEQFERLKHHAIKKFDSYNGLFAWVTSNGIVFGDLKEKQMEKDPASNNFGKFLSSSKVLLNFELPDYQNDKDHLIKDIVLTAFHILLLRKNTVTMVSQLNNDVVFHETIPRHQLTGSNTDSNEKFLGLVRDSVKETFWCFSNINVFEIIIENEPNSVWNLLVRDNKFDKALSLKGLTVREIESVKLSKAMYLFHTAKDFHSAAQTLGSMKDLSHFGEIALNFLQIKDYNDLNVILIKQLDNVPWKSTQVVLSSWIIWNFMKQLNDIELKINTTKPASTDEDNLLNWNLNLKEKSNELTKFLESHLEKLDNETVYQIMSKQNRQNELLIFASLINDMKFLLSFWIDQGNWYESLKILLTINNHDLVYKYSLILLLNSPEATVSTWMKIKDLDPNKLIPTILKFFTNWQNNSKLITNISEYPENYSLTYLKWCVREVPKMCNPIVYNSILYMMITDPRNDMILENDIIKFMKSNENKYDLNFQLRLSLKFKKTKTSIFLLTRLNLFEDAIDLALKNNLIDDCKVIVNDEILIEDYKLRKRLWLKIAKHLLLSMKDIDIKQLIRTILNDSNEILTIKDLLPFFNEYTTIANLKEELIKFLENHNMKMNEISEDIINSKNLKVEINTEISKFNEIYRILEPGKSCDECGKFLQIKKFIVFPCGHCFHWNCIIRVILNSNDYNLRQKTENFLKAKSKHNLNDLENIIVEKCGLCSDININKIDQPISIDETELAKWNE
notes: Vps18, yeast, core subunit shared by CORVET and HOPS
binds: all assays above
